Source: patent US9962427B2, “Treatment of right ventricular dysfunction due to pressure overload” (OTTAWA HOSPITAL RESEARCH INSTITUTE, priority 2016, dated 2018)

What was measured:
[1] = test system: cardiomyocytes
Procedure: FIG. 7B Quantitation of cell viability analysis as shown in (A). FIG. 7C Quantification of PI cell viability FACS analysis following a 24 hrs treatment of cardiomyocytes with H2O2 in the presence or absence of hCT1. Pre-treatment with PI3K inhibitor (LY294002, 50 μM) before H2O2 was also tested.
Cardiomyocytes were treated with control serum-free media or with H2O2 (300 μM, 1 hr) to induce cell death in the presence or absence of hCT1 (0.5 nM). After 24 hrs, cells were incubated with the cell viability marker Propidium Iodide (PI) (1 μg/mL) and analyzed by FACS (Ex: 535 nm, Em: 617 nm) for viable cells; i.e. cells inside the gated region of the side scatter (SS) versus PI plot (FIG. 7A). […] The PI3K pathway is a critical feature of physiological cardiac adaptive compensation and is a key protective feature distinguishing it from pathological adaptive compensation. Therefore, cardiomyocytes were pre-treated with a PI3K inhibitor (LY294002, 50 μM) before CT-1/H2O2 treatment.

[2] = test system: NF-κB; assay: NF-κB luciferase reporter in primary neonatal cardiomyocytes; format: cell-based; conditions: hCT1 0.5 nM
Procedure: FIGS. 6A, 6B, and 6C. Stimulation with hCT1 causes sustained activation of NF-κB and Stat3 with limited activation of Mef2, as well as limited Nfat activation; the latter two indices are distinct expression patterns from pathologic hypertrophic stimulation. FIG. 6A Primary neonatal cardiomyocytes were transfected with luciferase reporter plasmids (NF-κB or Mef2), as indicators of hypertrophic activity. Luciferase activity was measured after treatments for 24 hrs with: hCT1 (0.5 nM), PE (100 μM), or procaspase 3 activating compound 1, PAC-1 (25 μM) (left). Treatments at early timepoints (30 min, 1 hr, and 3 hr) were also conducted for hCT1 (right). FIG. 6B Primary neonatal cardiomyocytes were transfected with a luciferase reporter plasmid for Stat3. Luciferase activity was measured after treatments for 24 hrs with: hCT1 (0.5 nM), PE (100 μM), or procaspase 3 activating compound 1, PAC-1 (25 μM) (left) and at earlier time points (right). […] Luciferase activity was measured after treatments for 24 hrs with: hCT1 (0.5 nM), PE (100 μM), or procaspase 3 activating compound 1, PAC-1 (25 μM) (left) and at earlier time points (right)
The signaling pathways that CT-1 engages in mediating physiologic adaptive compensatory remodeling were examined. […] Primary neonatal cardiomyocytes were transfected with luciferase reporter plasmids (NF-κB and Mef2) to be used as a read out of transcriptional activity. […]

[3] = test system: P19 cells; assay: P19 cardiac differentiation (cTnT immunofluorescence, beating clusters, immunoblot); format: cell-based, mouse
Procedure: FIG. 9A Schematic for cardiac differentiation of pluripotent P19 cells. FIG. 9B Immunofluorescence results for the cardiac-specific marker Troponin T (cTnT) in P19 cardiac cells at day 7 of differentiation in the presence of varying doses of hCT1 ranging from 0-500 ng/mL (0-25 nM). Quantification of expression of cTnT is shown on the graph. FIG. 9C Quantification of beating clusters in P19 cardiac cells at day 13-15 of differentiation in the presence of varying doses of hCT1. FIG. 9D Immunoblot for the cardiac markers cTnT and GATA4 in whole cell lysates from a P19 cardiac differentiation timecourse in the presence and absence of hCT1.
Protection during conditions of cardiac pathologies can be conferred not only by the activation of pro-survival/pro-angiogenic signaling pathways but also by inducing the differentiation of cardiogenic progenitor cells. […] To test the effect of CT1 on cardiomyocyte differentiation, undifferentiated cells were induced to undergo cardiac differentiation with 0.8% DMSO and aggregation. At day 0, P19 cells are plated onto non-adherent bacterial petri dishes in the presence of MEMα growth media with 0.8% DMSO (control) or in the presence of different doses of hCT1-containing MEMα media ranging from 0.5 nM (10 ng/mL) to 25 nM (500 ng/mL) with 0.8% DMSO. P19 cells are then allowed to aggregate for 4 days. Finally, aggregates are then transferred onto adherent tissue culture dishes in the same media (this time in the absence of DMSO) to allow for subsequent cardiac differentiation (FIG. 9A, adapted from Skerjanc et al. 1999; Trends in Cardiovascular Medicine, volume 9, pages 139-143). The cardiac specific marker Troponin T (cTnT) was used (by immunofluorescence) to identify differentiated cells.
Differentiation was also followed up to day 15 and the number of visually beating clusters was used to assess cardiac differentiation. […]

B1: hCT1: Recombinant human CT1 protein; 201 amino acid sequence, GenBank Accession Nos AAD12173 and AAA85229 (human) (protein, UniProt Q16619 1-201, looked up)
Cardiotrophin-1: MSRREGSLEDPQTDSSVSLLPHLEAKIRQTHSLAHLLTKYAEQLLQEYVQLQGDPFGLPSFSPPRLPVAGLSAPAPSHAGLPVHERLRLDAAALAALPPLLDAVCRRQAELNPRAPRLLRRLEDAARQARALGAAVEALLAALGAANRGPRAEPPAATASAASATGVFPAKVLGLRVCGLYREWLSRTEGDLGQLLPGGSA
With B1 as the molecule, how does the “viability improved vs. H2O2” value ([1]; H2O2 in the presence of hCT1 (FIG. 7C)) read?
Its value is 154%.

And the “increase in viability upon pre-treatment” value ([1]; hCT1 0.5 nM, 1 hour H2O2 300 μM, viability at 24 hours (FIG. 7B))?
Its value is about 34%.

And the “NF-κB luciferase activity at 1 hr and 3 hr” value [2]?
Its value is “significant activation”.

What about the “NF-κB transcriptional activity at 24 hrs” value [2] of the same molecule?
The value was “sustained”.

And the “GATA4 and cTnT expression (immunoblot)” value ([3]; 10 ng/mL (0.5 nM) hCT1, days 5 and 7)?
The value was “significantly inhibited GATA4 and cTnT expression”.

What about the “differentiation of cardiac cells (cTnT+/DAPI+)” value ([3]; day 7, any dose 0.5 nM to 25 nM) of the same molecule?
The value was “significantly inhibited the differentiation of cardiac cells”.

What about the “number of beating clusters” value ([3]; days 13, 14, and 15) of the same molecule?
The value was “no beating clusters were detected”.
